Measurements published in PMC2746449.
Substitutions are numbered along the chain they refer to.

Experiments:
Flag-Aub mutant (M) = biological target: T1, Flag-Aub mutant (M) (Drosophila melanogaster, UniProt O76922 1-866, R11K;R13K;R15K;R17K); assay: UV crosslinking
T1 sequence: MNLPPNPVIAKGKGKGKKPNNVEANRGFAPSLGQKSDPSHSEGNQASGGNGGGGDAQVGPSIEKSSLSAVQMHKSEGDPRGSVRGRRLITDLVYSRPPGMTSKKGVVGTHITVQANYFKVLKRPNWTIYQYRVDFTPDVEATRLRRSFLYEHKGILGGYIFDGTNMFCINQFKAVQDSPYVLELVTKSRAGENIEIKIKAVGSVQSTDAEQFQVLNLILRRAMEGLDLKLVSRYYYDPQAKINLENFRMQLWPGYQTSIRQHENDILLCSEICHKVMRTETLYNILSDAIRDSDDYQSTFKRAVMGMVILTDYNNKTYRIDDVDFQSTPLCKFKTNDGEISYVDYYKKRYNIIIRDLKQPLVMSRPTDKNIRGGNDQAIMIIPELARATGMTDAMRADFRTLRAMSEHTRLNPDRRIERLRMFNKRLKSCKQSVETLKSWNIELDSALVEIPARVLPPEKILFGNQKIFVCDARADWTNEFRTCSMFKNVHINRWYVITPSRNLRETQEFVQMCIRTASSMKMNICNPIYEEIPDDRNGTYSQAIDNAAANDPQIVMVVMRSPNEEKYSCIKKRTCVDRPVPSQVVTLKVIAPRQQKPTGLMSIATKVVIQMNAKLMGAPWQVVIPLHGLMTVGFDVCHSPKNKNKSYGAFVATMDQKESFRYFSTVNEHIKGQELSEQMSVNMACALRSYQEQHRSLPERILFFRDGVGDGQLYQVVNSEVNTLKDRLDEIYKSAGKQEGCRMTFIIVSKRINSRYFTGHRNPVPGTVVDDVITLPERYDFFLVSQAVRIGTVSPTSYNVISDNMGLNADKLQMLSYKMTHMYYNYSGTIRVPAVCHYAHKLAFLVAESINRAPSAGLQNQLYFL

Flag-Aub WT = biological target: T2, Flag-Aub WT (Drosophila melanogaster, UniProt O76922 1-866); assay: UV crosslinking
T2 sequence: T1 sequence with K11R, K13R, K15R, K17R

Question: Does UGACAUGAACACAGGUGCUCAGAUAGCUUU (ssRNA, 4-thio-uridine (s4U) at position 1) [synthetic piRNA with s4U at position 1] bind (Flag-Aub mutant (M))?
Answer: binds

Question: Does UGACAUGAACACAGGUGCUCAGAUAGCUUU (ssRNA, 4-thio-uridine (s4U) at position 1) [synthetic piRNA with s4U at position 1] bind (Flag-Aub WT)?
Answer: binds
